# Reference: patent publication US20250074980A1 (BRIGHAM AND WOMEN S HOSPITAL, published 2025)
# Numbering of substitutions follows the chain as printed. Numbers in names are those of the source.
# T1: His-tagged CEACAM1 (human, UniProt P13688 35-428)
# T1 construct: 45 kDa SPR analyte; also called CEACAM1-HIS; CEACAM1 analyte
# T1 sequence: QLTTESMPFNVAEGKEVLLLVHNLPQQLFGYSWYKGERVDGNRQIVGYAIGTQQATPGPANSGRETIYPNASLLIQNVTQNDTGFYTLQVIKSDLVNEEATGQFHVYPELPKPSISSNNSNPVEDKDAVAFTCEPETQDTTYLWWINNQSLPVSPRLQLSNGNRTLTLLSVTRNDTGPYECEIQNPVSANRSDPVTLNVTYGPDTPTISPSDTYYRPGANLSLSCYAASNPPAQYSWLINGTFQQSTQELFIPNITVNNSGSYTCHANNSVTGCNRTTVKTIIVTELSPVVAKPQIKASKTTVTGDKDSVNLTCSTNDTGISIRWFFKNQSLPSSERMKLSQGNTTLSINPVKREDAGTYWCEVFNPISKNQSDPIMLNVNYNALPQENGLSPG
# B1: VH1/CP08E05 (antibody, IgG4, V domains shown)
# VH: EVQLLESGGGLVQPGGSLRLSCAASGFIFSSHGMSWVRQAPGKGLEWVATISSGGTYTYYPDSVKGRFTISRDNSKNTLYLQMNSLKAEDTAMYYCARHDFDYDAAWFAYWGQGTLVTVSS
# VL: EIVLTQSPATLSLSPGERATLSCRANSAVSYMYWYQQKPGQAPRPWIYLTSNRATGVPARFSGSGSGTDYTLTISSLEPEDFAVYYCQQWTTNPPTFGQGTKLEIK
# notes: IgG4 (S241P), kappa; also called Parent VH/CP08E05
# B2: VH1/CP08F05 (antibody, IgG4, V domains shown)
# VH: B1 VH
# VL: B1 VL with T92S
# notes: IgG4 (S241P), kappa; also called Parent VH/CP08F05
# B3: VH1/CP08G09 (antibody, IgG4, V domains shown)
# VH: B1 VH
# VL: B1 VL with T92A, N93F
# notes: IgG4 (S241P), kappa; also called Parent VH/CP08G09
# B4: 8H3_9C2 (CDR1)/CP08E05 (antibody, IgG4, V domains shown)
# VH: B1 VH with G26E, I28T, S31D, G33A, D104F, A105P, A106Y, Y110H
# VL: B1 VL
# notes: IgG4 (S241P), kappa
# B5: 8H3_9C2 (CDR1)/Vκ8 S29A (antibody, IgG4, V domains shown)
# VH: B1 VH with G26E, I28T, S31D, G33A, D104F, A105P, A106Y, Y110H
# VL: B1 VL with T91S, T92S
# notes: IgG4 (S241P), kappa
# B6: 8H3_9C2 (CDR1)/CP08F05 (antibody, IgG4, V domains shown)
# VH: B1 VH with G26E, I28T, S31D, G33A, D104F, A105P, A106Y, Y110H
# VL: B1 VL with T92S
# notes: IgG4 (S241P), kappa
# B7: 8H3_9E5/Vκ8 S29A (antibody, IgG4, V domains shown)
# VH: B1 VH with D100G, D104F, A105P, A106Y, Y110H
# VL: B1 VL with T91S, T92S
# notes: IgG4 (S241P), kappa
# B8: 8H3_9E5/CP08E05 (antibody, IgG4, V domains shown)
# VH: B1 VH with D100G, D104F, A105P, A106Y, Y110H
# VL: B1 VL
# notes: IgG4 (S241P), kappa
# B9: 8H3_9C2/CP08E05 (antibody, IgG4, V domains shown)
# VH: B1 VH with G26E, I28T, S31D, G33A, D100G, D104F, A105P, A106Y, Y110H
# VL: B1 VL
# notes: IgG4 (S241P), kappa
# B10: 8H3_9E5/CP08F05 (antibody, IgG4, V domains shown)
# VH: B1 VH with D100G, D104F, A105P, A106Y, Y110H
# VL: B1 VL with T92S
# notes: IgG4 (S241P), kappa
# B11: 8H3_9C2/Vκ8 S29A (antibody, IgG4, V domains shown)
# VH: B1 VH with G26E, I28T, S31D, G33A, D100G, D104F, A105P, A106Y, Y110H
# VL: B1 VL with T91S, T92S
# notes: IgG4 (S241P), kappa
# B12: 9B3_9E5/CP08F05 (antibody, IgG4, V domains shown)
# VH: B1 VH with I28T, S30N, S31A, G33A, M34I, D100G
# VL: B1 VL with T92S
# notes: IgG4 (S241P), kappa
# Molecular target: T1, His-tagged CEACAM1
# Test: SPR single-cycle, supernatant IgG captured
# Procedure: (§1) In order to assess the binding of the humanized, affinity matured reformatted lead IgGs, single-cycle kinetics analysis was performed on crude supernatants using a Biacore T200 running Biacore T200 Control Software V2.0.1 and Biacore T200 Evaluation Software V3.0. Antibodies were diluted in HBS-P+ to a final concentration of 0.5 μg/ml. At the start of each cycle, antibodies were loaded onto Fc2, Fc3 and Fc4 of the Protein A chip. IgGs were captured at a flow rate of 10 μl/min to give an immobilisation level (RL) of ˜100 RU (a level calculated to obtain a Rₘₐₓ of ˜50-150 RU once the analyte is bound). The surface was then allowed to stabilize. Single-cycle kinetics data was obtained with CEACAM1 as the analyte at a flow rate of 80 μl/min to minimize any potential mass transfer effects. Multiple repeats with the parent (VH1/Vκ8 S29A) antibody were performed to check the stability of the surface and analyte over the kinetic cycles. The signal from the reference channel Fc1 (no antibody) was subtracted from that of Fc2, Fc3 and Fc4 to correct for differences in non-specific binding to the reference surface. A three point, two-fold dilution range from 70 nM to 280 nM CEACAM1 without regeneration between each concentration was used. The signal from each antibody blank run (no CEACAM1) was subtracted to correct for differences in surface stability. The association phase for the three injections of increasing concentrations of CEACAM1 was monitored for 80 seconds each time and a single dissociation phase was measured for 150 seconds following the last injection of CEACAM1. Regeneration of the Protein A surface was conducted using two injections of 10 mM glycine-HCL pH 1.5 followed by a stabilization period of 250 seconds.
Kd,koff,kon,relative KD to parent,Binder
0.14 µM,0.034 s⁻¹,240000 M⁻¹ s⁻¹,4.4,B1
0.28 µM,0.11 s⁻¹,400000 M⁻¹ s⁻¹,2.2,B2
0.11 µM,0.049 s⁻¹,470000 M⁻¹ s⁻¹,5.9,B3

# Molecular target: T1, His-tagged CEACAM1
# Test: SPR single-cycle, supernatant IgG captured
# Remark: another data set of the same source
# Procedure, shortened: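 His-tagged CEACAM1 served as analyte over Protein A-captured IgG in single-cycle surface plasmon resonance on a Biacore T200, performed at 25° C in HBS-P+ (pH 7.4). The IgG was taken from supernatants of transiently PEI-transfected HEK EBNA cells grown in 6-well plates and harvested 5-7 days later. Relative KD, alongside fitted Kon, koff and Kd, was referenced to the parent antibody run in the same experiment.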
Kd,koff,kon,relative KD to parent,Binder
0.23 µM,0.034 s⁻¹,150000 M⁻¹ s⁻¹,2.4,B1
0.28 µM,0.029 s⁻¹,100000 M⁻¹ s⁻¹,2,B2
0.48 µM,0.057 s⁻¹,120000 M⁻¹ s⁻¹,1.2,B3

# Molecular target: T1, His-tagged CEACAM1
# Test: SPR single-cycle, supernatant IgG captured
# Remark: another data set of the same source
# Procedure: as §1
Kd,koff,kon,relative KD to parent,Binder
0.25 µM,0.019 s⁻¹,73000 M⁻¹ s⁻¹,2.2,B4
0.21 µM,0.018 s⁻¹,88000 M⁻¹ s⁻¹,2.7,B5
0.24 µM,0.017 s⁻¹,72000 M⁻¹ s⁻¹,2.3,B6
0.3 µM,0.024 s⁻¹,81000 M⁻¹ s⁻¹,1.9,B7
0.32 µM,0.025 s⁻¹,79000 M⁻¹ s⁻¹,1.8,B8
0.11 µM,0.0071 s⁻¹,67000 M⁻¹ s⁻¹,5.3,B9
0.28 µM,0.028 s⁻¹,77000 M⁻¹ s⁻¹,2,B10
0.11 µM,0.0071 s⁻¹,65000 M⁻¹ s⁻¹,5.1,B11
0.095 µM,0.012 s⁻¹,130000 M⁻¹ s⁻¹,5.9,B12
